Test results: patent publication US20180021429A1, “ANTICANCER AGENTS OR ANTIMETASTATIC AGENTS USING FSTL1 AND COMBINATION DRUG THEREOF” (PHARMA FOODS INTERNATIONAL CO., LTD., priority 2015, published 2018)
Entries after “also recorded” stand apart in the source; their conditions may differ.

T1: FSTL1 (Homo sapiens, UniProt Q12841)
T1 sequence (Q12841 21-308): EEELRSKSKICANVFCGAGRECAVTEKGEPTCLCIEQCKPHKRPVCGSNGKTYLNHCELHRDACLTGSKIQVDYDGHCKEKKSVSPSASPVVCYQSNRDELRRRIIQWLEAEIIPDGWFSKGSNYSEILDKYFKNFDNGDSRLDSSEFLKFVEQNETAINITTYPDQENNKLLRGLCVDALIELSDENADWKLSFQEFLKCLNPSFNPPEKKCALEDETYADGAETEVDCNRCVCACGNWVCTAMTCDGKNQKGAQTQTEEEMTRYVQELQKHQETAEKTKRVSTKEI

B1: #8-4: chicken-mouse chimeric anti-FSTL1 antibody clone; variable regions SEQ ID NO: 795 (light), 797 (heavy) (antibody, V domains shown)
VH: AVTLDESGGGLQTPGGGLSLVCKGSGFTLSSFNMFWVRQAPGKGLEWVAGVGKDGGTAYGAAVDGRATISRDSGQSTVRLQLNNLRAEDTGTYFCAKAAGGCSYSWCGAYVGDLDAWGHGTEVIVSS
VL: ASSQPSSVSANPGETVKITCSGGSGYYYGWYQQKSPGSAPVTVIYNNDNKPSDIPSRFSGSKSGSTGTLTITGVQVEDEAVYFCGGYDNSGTGIFGAGTTLTVL
modifications: mouse constant regions
B2: #5-8: chicken-mouse chimeric anti-FSTL1 antibody clone; variable regions SEQ ID NO: 771 (light), 773 (heavy) (antibody, V domains shown)
VH: AVTLDESGGGLQTPGGGLSLVCKGSGFTFSSFNMFWVRQAPGKGLEWVAGIGKDGVPKYGTAVDGRATISKDNGQSTMRLQLNNLRAEDTGTYFCAKAAGGCSYDWCGIYTGDIDTWGHGTEVIVSS
VL: ASTQPSSVSANPGEAVKITCSGGSGSYYGWYQQKSPGSAPVTVIYNNNQRPSDIPSRFSGSKSGSTATLTITGVQAEDEAVYFCGGYDSSTGHGGIFGAGTTLTVL
modifications: mouse constant regions
B3: #8-7: chicken-mouse chimeric anti-FSTL1 antibody clone; variable regions SEQ ID NO: 799 (light), 801 (heavy) (antibody, V domains shown)
VH: AVTLDESGGGLQTPGGGLSLVCKGSGFTFSSFNMFWVRQAPGKGLEWVAGIGKDGVPKYGAAVDGRATISKDNGQSTLRLQLNNLRAEDTGTYFCAKAAGGCSYDWCGIYAGDIDTWGHGTEVIVSS
VL: ASTQPSSVSANPGEAVKITCSGGSGSYYGWYQQKSPGSAPVTVIYNNNQRPSDIPSRFSGSKSGSTATLTITGVQAEDEAVYFCGGYDSSTGHGGIFGAGTTLTVL
modifications: mouse constant regions
B4: #5-2: chicken-mouse chimeric anti-FSTL1 antibody clone; variable regions SEQ ID NO: 763 (light), 765 (heavy) (antibody, V domains shown)
VH: AVTLDESGGGLQTPGGGLSLVCKGSGFTFSSFNMFWVRQAPGKGLEWVAGVGKDGGTGYGAAVDGRATISKDNGQSTLRLQLNNLRAEDTGTYYCAKAAGGCSYGWCGSYVGDIDAWGHGTEVIVSS
VL: ASTQPSSVSANPGEAVKITCSGGSGSYYGWYQQKSPGSAPVTVIYNNNQRPSDIPSRFSGSKSGSTATLTITGVQAEDEAVYFCGGYDSSTGHGGIFGAGTTLTVL
modifications: mouse constant regions

Experiments:
[1] = system: human pancreatic cancer cell line Panc1; experiment: Inhibition of activation of tumor cells by FSTL1, Panc1 (Examples 5, 7, 9, 10, 11); type: cell-based; conditions: 3 days
Method: It is known that tumor cells activated by stimulation with FSTL1 highly express molecule groups promoting bone metastasis and increase metastatic invasive capacity (Cancer Research 73: 6185, 2013). Thus, 2×10^7 cells/well of a human pancreatic cancer cell line Panc1 were suspended in 1 mL/well of D-MEM medium (GIBCO/Thermo Fisher Scientific Inc. Cat. No. C11885500BT) containing 10% fetal bovine serum, supplemented with 50 ng/mL (final concentration) of FSTL1 (R&D Systems, Inc.) and 10 μg/mL of the anti-FSTL1 antibody (#5-2, #5-8, #5-10, #5-43, #6-55, or #7-34) or its isotype mouse IgG (anti-DNP antibody) as a control antibody “Control”, and cultured under stimulation (6-well plate). 3 days thereafter, the number of cells was counted while the cells were stained with a PE-labeled anti-RANKL antibody (eBioscience Cat. No. 12-6619) and a PE-labeled anti-CCR2 antibody (R&D Systems, Inc. Cat. No. FAB151P) in order to examine the expression of markers indicating bone metastatic properties, and the contents of RANKL-positive cells and CCR2-positive cells were analyzed by flow cytometry using FACScan (Becton, Dickinson and Company) to calculate the numbers of cells per culture. […] Therefore, in Examples below, judgment was made with the number of cells as an index.
(§1) In the same way as in Example 5, a human pancreatic cancer cell line Panc1 was supplemented with 50 ng/mL (final concentration) of FSTL1 (R&D Systems, Inc.) and 10 μg/mL of the anti-FSTL1 antibody (the same clones as in Example 6) or a control antibody and cultured under stimulation. 3 days thereafter, the number of cells was counted while the cells were stained with a PE-labeled anti-RANKL antibody and a PE-labeled anti-CCR2 antibody, and the contents of RANKL-positive cells and CCR2-positive cells were analyzed by flow cytometry using FACScan (Becton, Dickinson and Company) to calculate the numbers of cells per culture (FIG. 99B).
as §1, with “20” for “50”, “FSTL1” for “FSTL1 (R&D Systems, Inc.)”, “(#5-2, #5-8, or #6-55)” for “(the same clones as in Example 6)”, “100B).” for “99B).”
as §1, with “FSTL1” for “FSTL1 (R&D Systems, Inc.)”, “(#5-2, #5-3, #6-55, #7-34, #8-1, #8-4, #8-7, or #8-8)” for “(the same clones as in Example 6)”, “culture.” for “culture (FIG. 99B).”
In the same way as in Example 5, a human pancreatic cancer cell line Panc1 was supplemented with 50 ng/mL (final concentration) of FSTL1 and 10 μg/mL of the anti-FSTL1 antibody (#6-55) or a control antibody and cultured under stimulation. 3 days thereafter, the number of cells was counted while the cells were stained with a PE-labeled anti-RANKL antibody and a PE-labeled anti-CCR2 antibody, and the contents of RANKL-positive cells and CCR2-positive cells were analyzed by flow cytometry using FACScan (Becton, Dickinson and Company) to calculate the numbers of cells per culture.

FSTL1 = target: T1, FSTL1; experiment: Inhibition of MSC induction by FSTL1 in mouse bone marrow cells, CD45-negative cells (Examples 6, 8, 12); type: cell-based; set-up: purchased R&D Systems, Inc. 1694-FN-050; conditions: antibody 10 μg/mL
Method: Mouse bone marrow cells prepared in the same way as in Example 4 were supplemented with 50 ng/mL (final concentration) of FSTL1 and 10 μg/mL of the anti-FSTL1 antibody (#5-2, #5-3, #5-8, #5-10, 45-43, #6-55, or #7-34) or a control antibody anti-DNP antibody and cultured under stimulation. 11 days thereafter, the number of cells was counted while the cells were stained with a PE-Cy5-labeled anti-CD45 antibody (BD Pharmingen/Becton, Dickinson and Company, Cat. No. 555484), and the content of CD45− negative cells reported to generally contain MSCs at a high rate was analyzed by flow cytometry using FACScan to calculate the percentage and number of MSCs per culture (FIG. 67A).
Mouse bone marrow cells prepared in the same way as in Example 4 were supplemented with 20 ng/mL (final concentration) of FSTL1 and 10 μg/mL of the anti-FSTL1 antibody (#5-2, #5-3, #5-8, #5-10, #5-43, #6-55, #8-1, #8-4, #8-7, and #8-8) or a control antibody anti-DNP antibody and cultured under stimulation. 8 days thereafter, the number of cells was counted while the cells were stained with a PE-Cy5-labeled anti-CD45 antibody, and the content of CD45− negative cells was analyzed by flow cytometry using FACScan to calculate the percentage and number of MSCs per culture (FIG. 68A).
Mouse bone marrow cells prepared in the same way as in Example 4 were supplemented with 20 ng/mL (final concentration) of FSTL1 and 10 μg/mL of the anti-FSTL1 antibody (#5-2, #5-8, #6-55, #7-34, #8-1, #8-4, #8-7, or #8-8) or a control antibody anti-DNP antibody and cultured under stimulation. 8 days thereafter, the number of cells was counted while the cells were stained with a PE-Cy5-labeled anti-CD45 antibody, and the content of CD45− negative cells was analyzed by flow cytometry using FACScan to calculate the percentage and number of MSCs per culture (FIG. 69).

[2] = Example 10: 50 ng/mL FSTL1, 10 μg/mL antibody
[3] = Example 8, FSTL1 20 ng/mL, 8 days
[4] = Example 12, FSTL1 20 ng/mL, 8 days

Molecule	inhibitory activity against the expansion of RANKL-positive cells and CCR2-positive cells [1, 2]	inhibitory activity against the expansion of CD45-negative cells by FSTL1 (FSTL1; [3])	inhibitory activity against the expansion of RANKL-positive cells and CCR2-positive cells ([1]; Example 7: 50 ng/mL FSTL1, 10 μg/mL antibody, FIG. 99B)	inhibitory activity against the expansion of RANKL-positive cells and CCR2-positive cells ([1]; Example 9: 20 ng/mL FSTL1, 10 μg/mL antibody, FIG. 100B)	inhibitory activity against the expansion of CD45-negative cells by FSTL1 (FSTL1; Example 6, FSTL1 50 ng/mL, 11 days)	inhibitory activity against the expansion of CD45-negative cells by FSTL1 (FSTL1; [4])
B1	high inhibitory activity	exhibited inhibitory activity				
B2		Inhibitory activity was confirmed; also recorded: exhibited inhibitory activity	higher inhibitory activity	exhibited inhibitory activity	higher inhibitory activity and substantially completely inhibited the action of FSTL1	
B3	high inhibitory activity					stronger inhibitory activity was confirmed in the order of clone #7-34, #5-2, 46-55, and #8-7; also recorded: higher inhibitory activity was confirmed in the order of #7-34, #5-2, #6-55, and #8-7; also recorded: stronger inhibitory activity was confirmed in the order of clone #7-34, #5-2, 96-55, and #8-7
B4	high inhibitory activity					stronger inhibitory activity was confirmed in the order of clone #7-34, #5-2, 46-55, and #8-7; also recorded: higher inhibitory activity was confirmed in the order of #7-34, #5-2, #6-55, and #8-7; also recorded: stronger inhibitory activity was confirmed in the order of clone #7-34, #5-2, 96-55, and #8-7
